Measured values published in the Immune Epitope Database (IEDB).
Blank lines part the entries; values can stand above or below the sequence they belong to.

Tests used:
[1] = molecular target: HLA-A*30:01; assay: IEDB peptide-MHC binding, purified MHC/competitive/radioactivity; filed as Kd, often an IC50 or EC50 that approximates it; ≥ and ≤ were set here for values at or beyond the usual limits of such assays
[2] = molecular target: HLA-A*24:02; assay: as above
[3] = molecular target: HLA-A*23:01; assay: as above
[4] = molecular target: HLA-A*30:02; assay: as above
[5] = molecular target: HLA-B*08:01; assay: as above
[6] = molecular target: HLA-A*69:01; assay: IEDB peptide-MHC binding, purified MHC/direct/fluorescence; filed as Kd, often an IC50 or EC50 that approximates it; ≥ and ≤ were set here for values at or beyond the usual limits of such assays
[7] = molecular target: HLA-A*02:01; assay: as above
[8] = molecular target: HLA-A*02:01; assay: IEDB peptide-MHC binding, purified MHC/competitive/fluorescence; ≥ and ≤ were set here for values at or beyond the usual limits of such assays
[9] = molecular target: HLA-A*01:01; assay: IEDB peptide-MHC binding, purified MHC/competitive/radioactivity; filed as Kd, often an IC50 or EC50 that approximates it; ≥ and ≤ were set here for values at or beyond the usual limits of such assays
[10] = molecular target: HLA-A*02:02; assay: as above
[11] = molecular target: HLA-A*02:03; assay: as above
[12] = molecular target: HLA-A*02:06; assay: as above
[13] = molecular target: HLA-A*03:01; assay: as above; details: source organism: Vaccinia virus WR
[14] = molecular target: HLA-A*11:01; assay: as above; details: source organism: Vaccinia virus WR
[15] = molecular target: HLA-A*33:01; assay: as above; details: source organism: Vaccinia virus WR
[16] = molecular target: HLA-A*68:01; assay: as above; details: source organism: Vaccinia virus WR
[17] = molecular target: HLA-A*31:01; assay: as above; details: source organism: Vaccinia virus WR
[18] = source organism: Vaccinia virus WR
[19] = source organism: Dengue virus 1 Brazil/97-11/1997
[20] = source organism: Dengue virus 3 Martinique/1243/1999
[21] = source organism: Dengue virus 2 Jamaica/1409/1983
[22] = source organism: Dengue virus 4 Philippines/H241/1956
[23] = source organism: Francisella tularensis subsp. tularensis FSC198
[24] = source organism: Mammarenavirus guanaritoense
[25] = source organism: Vibrio alginolyticus 12G01

Sequence: RARFIGGYI
Kd [1, 18]: 0.263 nM

Sequence: RARVSQGAG
Kd [1, 19]: 194 nM

Sequence: RFANALLAL
Kd [2, 20]: 689 nM
Kd [3, 20]: 142 nM

Sequence: RGDLPVWLSY
Kd [4, 19]: 4100 nM

Sequence: RRFRRPMSL
Kd [5, 18]: 111 nM

Sequence: RTPQDNQLTY
Kd [4, 21]: 1.02 nM

Sequence: RTYSSSIIA
Kd [1, 18]: 49.8 nM

Sequence: RYLEFEALGF
Kd [2, 20]: 38.1 nM
Kd [3, 20]: 4.68 nM

Sequence: RYLRDQQLL
Kd ([2]; source organism: HIV-1 M:B_ARV2/SF2): 30 nM

Sequence: RYRSGFWII
Kd [1, 18]: 8.74 nM

Sequence: SAKYINSSI
Kd [5, 18]: 137 nM

Sequence: SALYSYASA
Kd [1, 18]: 36.7 nM

Sequence: SGALWDVPSP
Kd [1, 22]: 11000 nM

Sequence: SILEYAKSI
Kd [6, 23]: 107 nM
Kd [7, 23]: 102 nM

Sequence: SISIKLTDS
IC50 ([8]; source organism: Vaccinia virus Copenhagen): ≥ 107000 nM

Sequence: SITEAELTGY
Kd [9, 21]: 391 nM

Sequence: SLLRNDVPM
Kd [5, 20]: 47.5 nM

Sequence: SLNTKFKTL
Kd [5, 18]: 8.68 nM

Sequence: SMFMSLLPA
Kd [5, 18]: 55.5 nM

Sequence: SPKRLATAI
Kd [5, 20]: 14.1 nM

Sequence: SSAMVQVHS
IC50 ([8]; source organism: Zaire ebolavirus): ≥ 595000 nM

Sequence: SVKINFEFV
Kd [5, 18]: 105 nM

Sequence: SVYIRPTSL
Kd [5, 18]: 10.7 nM

Sequence: SYKVASAGI
Kd [2, 22]: 105 nM

Sequence: TAQEQHNAA
IC50 ([8]; source organism: Sudan ebolavirus): 27500 nM

Sequence: TFKMRPMFA
Kd [1, 19]: 23.1 nM

Sequence: TFKNAHAKK
Kd [1, 20]: 111 nM

Sequence: TLGRNKRPRL
Kd ([5]; source organism: Dengue virus 3 Sri Lanka/1266/2000): 395 nM

Sequence: TLNTLITLIL
Kd [10, 18]: 150 nM
Kd [11, 18]: 7.09 nM
Kd [12, 18]: 826 nM

Sequence: TLVDLCFWS
Kd [10, 24]: 57.9 nM
Kd [11, 24]: 523 nM
Kd [12, 24]: 134 nM

Sequence: TMGVLCLAIL
Kd [5, 20]: 6430 nM

Sequence: TTNNLLEQL
Kd [10, 18]: 122 nM
Kd [11, 18]: 1420 nM
Kd [12, 18]: 3040 nM

Sequence: TVGMLIYSM
Kd [10, 18]: 490 nM
Kd [11, 18]: 6090 nM
Kd [12, 18]: 9170 nM

Sequence: TVRDGQLEV
Kd [1, 18]: 12.8 nM

Sequence: TWKLARASF
Kd [2, 19]: 224 nM
Kd [3, 19]: 218 nM

Sequence: VDRKGKVVGL
Kd [5, 21]: 6320 nM

Sequence: VLEKKVCAI
Kd [10, 18]: 14400 nM
Kd [11, 18]: 2310 nM
Kd [12, 18]: 3390 nM

Sequence: VLLNAPSEA
IC50 ([8]; source organism: Human alphaherpesvirus 1 strain 17): 19 nM

Sequence: VLLPFYETL
Kd [10, 18]: 4060 nM
Kd [11, 18]: 267 nM
Kd [12, 18]: 218 nM

IC50 ([8]; source organism: Homo sapiens): 2080 nM
Sequence: VLVHPQWVL

Sequence: VMKIGIGVLL
Kd [5, 20]: 516 nM

Sequence: VMKRYSAPFE
Kd [1, 22]: 5920 nM

Sequence: VQLSNNKYVL
Kd [10, 18]: 288 nM
Kd [11, 18]: 9490 nM
Kd [12, 18]: 170 nM

Sequence: VTEKDSPVNI
Kd [9, 21]: ≥ 40900 nM

Sequence: VTFINDYANL
Kd [10, 18]: 99.1 nM
Kd [11, 18]: 247 nM
Kd [12, 18]: 148 nM

Sequence: VTKSSSWKDV
Kd [10, 18]: ≥ 70000 nM
Kd [11, 18]: ≥ 41900 nM
Kd [12, 18]: ≥ 69800 nM

Sequence: VVRGIDGGV
Kd [6, 25]: ≥ 20000 nM
Kd [7, 25]: ≥ 20000 nM

Sequence: VWEVEDYGF
Kd [3, 20]: 296 nM

Sequence: VYPMSIPATL
Kd [2, 19]: 78.1 nM
Kd [3, 19]: 6.39 nM

Sequence: WFVERNMVI
Kd [3, 20]: 340 nM

Sequence: WMDLLRALI
Kd [9, 22]: 9950 nM

Sequence: WTMKIGIGIL
Kd [5, 19]: 342 nM

Sequence: YKKLKFRFI
Kd [5, 18]: 196 nM

Sequence: YLSGTDDEVI
Kd [10, 18]: 6.26 nM
Kd [11, 18]: 211 nM
Kd [12, 18]: 947 nM

Sequence: YLYNKYSFKL
Kd [10, 18]: 0.109 nM
Kd [11, 18]: 0.0349 nM
Kd [12, 18]: 0.14 nM

Sequence: YSHGDIKAS
IC50 [8, 18]: ≥ 72000 nM

Sequence: YTFFSYLMK
Kd [13]: 9.77 nM
Kd [1, 18]: 473 nM
Kd [14]: 0.563 nM
Kd [15]: 3010 nM
Kd [16]: 0.813 nM
Kd [17]: 3960 nM
